Results on 20 molecules are retold here after patent publication US20120316071A1 (published 2012).

The labels stand for the following.
B1: Fab VH5-51_IGHD5-18*01>3_IGHJ4*01 G100K/G104T G24T/S28R/G35V & V3-4_IGLJ1*01 V91L/S96P (Fab, V domains shown)
VH: EVQLVQSGAEVKKPGESLKISCKTSGYRFTSYWIVWVRQMPGKGLEWMGIIYPGDSDTRYSPSFQGQVTISADKSISTAYLQWSSLKASDTAMYYCARRKYSYTYDYFDYWGQGTLVTVSS
VL: QTVVTQEPSFSVSPGGTVTLTCGLSSGSVSTSYYPSWYQQTPGQAPRTLIYSTNTRSSGVPDRFSGSILGNKAALTITGAQADDESDYYCLLYMGPGISYVFGTGTKVTVL
notes: Fab expressed in E. coli; heavy chain vector adds CH1 with His6 and Flag tags, light chain vector adds lambda CL; Template of the S52, T53 and S57 light chain mutants; also called H:KT TRV & L:LP
B2: Fab VH5-51_IGHD5-18*01>3_IGHJ4*01 G100K/G104T G24T/S28R/G35V & V3-4_IGLJ1*01 V91L/S96P S52E (Fab, V domains shown)
VH: B1 VH
VL: B1 VL with S52E
notes: Fab expressed in E. coli; heavy chain vector adds CH1 with His6 and Flag tags, light chain vector adds lambda CL; also called H:KT TRV & L:LP S52E
B3: Fab VH5-51_IGHD5-18*01>3_IGHJ4*01 G100K/G104T G24T/S28R/G35V & V3-4_IGLJ1*01 V91L/S96P S52D (Fab, V domains shown)
VH: B1 VH
VL: B1 VL with S52D
notes: Fab expressed in E. coli; heavy chain vector adds CH1 with His6 and Flag tags, light chain vector adds lambda CL; also called H:KT TRV & L:LP S52D
B4: Fab VH5-51_IGHD5-18*01>3_IGHJ4*01 G100K/G104T G24T/S28R/G35V (H:KT TRV) & V3-4_IGLJ1*01 V91P (Fab, V domains shown)
VH: B1 VH
VL: B1 VL with L91P, P96S
notes: Fab; expressed from plasmid A (CH1, His6 and Flag tags) and plasmid E (lambda CL)
B5: Fab VH5-51_IGHD5-18*01>3_IGHJ4*01 G100K/G104T G24T/S28R/G35V (H:KT TRV) & V3-4_IGLJ1*01 V91N (Fab, V domains shown)
VH: B1 VH
VL: B1 VL with L91N, P96S
notes: as for B4
B6: Fab VH5-51_IGHD5-18*01>3_IGHJ4*01 G100K/G104T G24T/S28R/G35V (H:KT TRV) & V3-4_IGLJ1*01 V91L (Fab, V domains shown)
VH: B1 VH
VL: B1 VL with P96S
notes: as for B4
B7: Fab VH5-51_IGHD5-18*01>3_IGHJ4*01 G100K/G104T G24T/S28R/G35V (H:KT TRV) & V3-4_IGLJ1*01 V91W (Fab, V domains shown)
VH: B1 VH
VL: B1 VL with L91W, P96S
notes: as for B4
B8: Fab VH5-51_IGHD5-18*01>3_IGHJ4*01 G100K/G104T G24T/S28R/G35V (H:KT TRV) & V3-4_IGLJ1*01 V91I (Fab, V domains shown)
VH: B1 VH
VL: B1 VL with L91I, P96S
notes: as for B4
B9: Fab VH5-51_IGHD5-18*01>3_IGHJ4*01 G100K/G104T G24T/S28R/G35V (H:KT TRV) & V3-4_IGLJ1*01 V91T (Fab, V domains shown)
VH: B1 VH
VL: B1 VL with L91T, P96S
notes: as for B4
B10: Fab VH5-51_IGHD5-18*01>3_IGHJ4*01 G100K/G104T G24T/S28R/G35V (H:KT TRV) & V3-4_IGLJ1*01 V91S (Fab, V domains shown)
VH: B1 VH
VL: B1 VL with L91S, P96S
notes: as for B4
B11: Fab VH5-51_IGHD5-18*01>3_IGHJ4*01 G100K/G104T G24T/S28R/G35V (H:KT TRV) & V3-4_IGLJ1*01 V91H (Fab, V domains shown)
VH: B1 VH
VL: B1 VL with L91H, P96S
notes: as for B4
B12: Fab VH5-51_IGHD5-18*01>3_IGHJ4*01 G100K/G104T G24T/S28R/G35V (H:KT TRV) & V3-4_IGLJ1*01 T78S (Fab, V domains shown)
VH: B1 VH
VL: B1 VL with T78S, L91V, P96S
notes: Fab; expressed in E. coli with CH1 (Plasmid A, His6 and Flag tags) and lambda CL (Plasmid E); also called H:KT TRV & T78S
B13: Fab VH5-51_IGHD5-18*01>3_IGHJ4*01 G100K/G104T G24T/S28R/G35V (H:KT TRV) & V3-4_IGLJ1*01 L92A (Fab, V domains shown)
VH: B1 VH
VL: B1 VL with L91V, L92A, P96S
notes: Fab; expressed in E. coli with CH1 (Plasmid A, His6 and Flag tags) and lambda CL (Plasmid E); also called H:KT TRV & L92A
B14: Fab VH5-51_IGHD5-18*01>3_IGHJ4*01 G100K/G104T G24T/S28R/G35V (H:KT TRV) & V3-4_IGLJ1*01 T78L (Fab, V domains shown)
VH: B1 VH
VL: B1 VL with T78L, L91V, P96S
notes: Fab; expressed in E. coli with CH1 (Plasmid A, His6 and Flag tags) and lambda CL (Plasmid E); also called H:KT TRV & T78L
B15: Fab VH5-51_IGHD5-18*01>3_IGHJ4*01 G100K/G104T G24T/S28R/G35V (H:KT TRV) & V3-4_IGLJ1*01 T78E (Fab, V domains shown)
VH: B1 VH
VL: B1 VL with T78E, L91V, P96S
notes: Fab; expressed in E. coli with CH1 (Plasmid A, His6 and Flag tags) and lambda CL (Plasmid E); also called H:KT TRV & T78E
B16: Fab VH5-51_IGHD5-18*01>3_IGHJ4*01 G100K/G104T G24T/S28R/G35V (H:KT TRV) & V3-4_IGLJ1*01 G95A (Fab, V domains shown)
VH: B1 VH
VL: B1 VL with L91V, G95A, P96S
notes: Fab; expressed in E. coli with CH1 (Plasmid A, His6 and Flag tags) and lambda CL (Plasmid E); also called H:KT TRV & G95A
B17: Fab VH5-51_IGHD5-18*01>3_IGHJ4*01 G100K/G104T G24T/S28R/G35V (H:KT TRV) & V3-4_IGLJ1*01 S26A (Fab, V domains shown)
VH: B1 VH
VL: B1 VL with S26A, L91V, P96S
notes: Fab; expressed in E. coli with CH1 (Plasmid A, His6 and Flag tags) and lambda CL (Plasmid E); also called H:KT TRV & S26A
B18: Fab VH5-51_IGHD5-18*01>3_IGHJ4*01 G100K/G104T G24T/S28R/G35V (H:KT TRV) & V3-4_IGLJ1*01 T31A (Fab, V domains shown)
VH: B1 VH
VL: B1 VL with T31A, L91V, P96S
notes: Fab; expressed in E. coli with CH1 (Plasmid A, His6 and Flag tags) and lambda CL (Plasmid E); also called H:KT TRV & T31A
B19: Fab VH5-51_IGHD5-18*01>3_IGHJ4*01 G100K/G104T G24T/S28R/G35V (H:KT TRV) & V3-4_IGLJ1*01 S96A (Fab, V domains shown)
VH: B1 VH
VL: B1 VL with L91V, P96A
notes: Fab; expressed in E. coli with CH1 (Plasmid A, His6 and Flag tags) and lambda CL (Plasmid E); also called H:KT TRV & S96A
B20: Fab VH5-51_IGHD5-18*01>3_IGHJ4*01 G100K/G104T G24T/S28R/G35V (H:KT TRV) & V3-4_IGLJ1*01 V29A (Fab, V domains shown)
VH: B1 VH
VL: B1 VL with V29A, L91V, P96S
notes: Fab; expressed in E. coli with CH1 (Plasmid A, His6 and Flag tags) and lambda CL (Plasmid E); also called H:KT TRV & V29A

Substitutions are numbered along the chain they refer to. In names and notes the source's numbering stands.

One experiment deals with T1, Recombinant Human DLL4 (delta-like protein 4) (human, UniProt Q9NR61 27-524).
T1 construct: also called rHuman DLL4; Delta-like 4
Kind of experiment: ELISA, DLL4 coated on plate, Fab at 100 nM. On the technique in general: ELISA stands for enzyme-linked immunosorbent assay.
For the molecule B1, the “ELISA Signal-blank (100 nM Fab)” value was found to be 0.39.

With B2, the “ELISA Signal-blank (100 nM Fab)” value stood at 0.38.

With B3, the “ELISA Signal-blank (100 nM Fab)” value was 0.39.

The target in a further experiment is T2, Recombinant Human DLL4 (human, UniProt Q9NR61 27-524).
T2 construct: Bought recombinant human DLL4 (R&D Systems Cat#1506-D4/CF); also called delta-like protein 4; Delta-like 4
The experiment is described as follows: ELISA, DLL4 coated on the plate, Fab at 100 nM, signal minus blank.
Take B4: the “ELISA Signal-blank (100 nM Fab)” value came to 0.078.

B5: the “ELISA Signal-blank (100 nM Fab)” value is 0.203.

Take B6: the “ELISA Signal-blank (100 nM Fab)” value worked out at 0.734.

As for B7, the “ELISA Signal-blank (100 nM Fab)” value was found to be 0.08.

Regarding B8, the “ELISA Signal-blank (100 nM Fab)” value came out at 0.336.

As for B9, the “ELISA Signal-blank (100 nM Fab)” value was determined as 0.197.

Consider B10, for which the “ELISA Signal-blank (100 nM Fab)” value worked out at 0.264.

On to B11, for which the “ELISA Signal-blank (100 nM Fab)” value came out at 0.127.

For a further experiment, the target named is T3, Recombinant Human DLL4 (human, UniProt Q9NR61 27-524).
T3 construct: also called delta-like protein 4; rHuman DLL4
The experiment is described as follows: ELISA, DLL4 coated on plate, Fab at 100 nM, absorbance at 450 nm minus blank.
For B12, the “ELISA Signal-blank (100 nM Fab)” value was 0.093.

For the molecule B13, the “ELISA Signal-blank (100 nM Fab)” value was 0.186.

For B14, the “ELISA Signal-blank (100 nM Fab)” value amounted to 0.347.

With B15, the “ELISA Signal-blank (100 nM Fab)” value came out at 0.217.

On to B16, for which the “ELISA Signal-blank (100 nM Fab)” value was determined as 0.216.

With B17, the “ELISA Signal-blank (100 nM Fab)” value worked out at 0.395.

Regarding B18, the “ELISA Signal-blank (100 nM Fab)” value turned out to be 0.552.

In the case of B19, the “ELISA Signal-blank (100 nM Fab)” value turned out to be 0.436.

As for B20, the “ELISA Signal-blank (100 nM Fab)” value came out at 0.394.
